By IC50 is commonly meant the concentration that inhibits the measured activity by half. A lower IC50 goes with greater potency in that assay. Usually Kd stands for a measure of binding affinity in units of concentration.

The chains are these.
B1: SAIT-ANG2-AB-m3E2 (antibody, V domains shown)
VH: EVQLQQSGAELVKPGASVKLSCTASGFNIKDPYIHWVKQRPEQGLEWIGRIDPANGNTKYDPKFQGKATITADTSSNTAYLQLSSLTSEDTAVYYCVRRWDGGGFDYWGQGTSVTVSS
VL: DIQMTQTTSSLSASLGDRVTISCRASQDISNYLNWYQQKPDGTVKLLIYYTSRLHSGVPSRFSGSGSGTDYSLTITNLEQEDIATYFCQQGNTLPWTFGGGTKLEIK
notes: also called hybridoma KCLRF-BP-00305
B2: SAIT-ANG2-AB-m8D3 (antibody, V domains shown)
VH: EVQLQQSGPELVKPGDSVKMSCKASGYTFTDYYMKWVRQSHGKSLQWVGEINPKNGDTFYNQIFKGKATLTVDKSSSTAYMQLTSLTSEDSAVYYCTRENDYDVGFFDYWGQGTSVTVSS
VL: TIVMTQTPKFLLVSAGDRITITCKASQSVSNDVAWYQQKPGQSPKLLIYYASNRYPGVPDRFTGSGYGTDFTFTISTVQAEDLAVYFCQQDYTSPWTFGGGTELEIK
notes: also called hybridoma KCLRF-BP-00308
B3: SAIT-ANG2-AB-m1A10 (antibody, V domains shown)
VH: QVQLQQSGAELMKPGASVKISCKATDYTFSSYWLEWLIQRPGHGLEWIGEILPGSGSTNYNEKFRGKATFTEDTSSNTAYMQLSSLTSEDSAVYYCARGNHNSYYYAMDYWGQGTSVTVSS
VL: DIVLTQSPASLAVSLGQRATISCRASESVDSYGNSFMHWYQQKPGQPPKLLIYRASNLDSGIPARFSGSGSRTDFTLTINPVEADDVATYYCQQSNEDPLTFGAGTKLELK
notes: also called hybridoma KCLRF-BP-00306

The target in one assay is T1, FLAG-tagged hAng-2 (human, UniProt O15123 19-496).
T1 sequence: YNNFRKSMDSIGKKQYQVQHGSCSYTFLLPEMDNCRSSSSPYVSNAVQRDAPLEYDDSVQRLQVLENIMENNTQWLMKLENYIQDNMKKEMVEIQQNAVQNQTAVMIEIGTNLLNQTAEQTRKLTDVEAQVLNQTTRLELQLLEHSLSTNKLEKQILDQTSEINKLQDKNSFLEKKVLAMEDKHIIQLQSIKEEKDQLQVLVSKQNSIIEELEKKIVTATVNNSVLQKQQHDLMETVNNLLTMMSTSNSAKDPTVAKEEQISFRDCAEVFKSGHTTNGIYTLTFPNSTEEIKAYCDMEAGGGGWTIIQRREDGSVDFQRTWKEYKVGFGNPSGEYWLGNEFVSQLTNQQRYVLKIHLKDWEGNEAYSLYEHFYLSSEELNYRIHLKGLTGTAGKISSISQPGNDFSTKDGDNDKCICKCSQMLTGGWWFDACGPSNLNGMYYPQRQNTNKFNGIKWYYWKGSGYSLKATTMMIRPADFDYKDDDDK
The assay is described as follows: Ang2:Tie2 competition ELISA; hTie2-Fc coated, 400 ng/ml FLAG-tagged hAng-2, anti-FLAG-HRP detection. The protocol:
More specifically, MaxiSorp™ flat-bottom plate (Nunc) of 96-well was coated with hTie2-Fc (R&D Systems) which is a protein bound with 4 μg/ml of Fc of human IgG1. After coating, the plate was washed five times with 0.05% (v/v) Tween-20-containing PBS (phosphate buffer saline) and then blocked with 1% (v/v) BSA (bovine serum albumin; Sigma)-containing PBS at a room temperature for 2 hour.
For Ang2:Tie2 competition ELISA, each anti-Ang2 antibody obtained in Example 2 was placed at various concentrations of 400 nM-0.001 nM into each well coated with the hTie-2/Fc fusion protein along with 1% (v/v) BSA and 400 ng/ml of a FLAG-tagged hAng-2 and then, the plate was allowed to react at a room temperature for 2 hours and washed five times with PBST. After that, a HRP-conjugated anti-FLAG antibody (Sigma) diluted in 1% (v/v) BSA-containing PBS at a ratio of 1:5,000 (v/v) was added in an amount of […] to each well to react at a room temperature for 1 hour and then, the plate was washed five times with PBST. Lastly, 100 μl of TMB substrate (Cell Signaling) was added to each well of the plate to induce color development for 3 min. and then, the reaction was ceased by the addition of 100 μl of Stop solution (Cell Signaling) and OD450 values were measured on a plate reader (Molecular Devices).
A general note: ELISA stands for enzyme-linked immunosorbent assay.
In the case of B1, the IC50 was 0.55 nM.
Molecule B2 showed an IC50 of 0.99 nM.
In turn, B3 showed a half-inhibitory concentration (IC50) of 1.34 nM.

In the next assay the target is T2, hAng1 (human, UniProt Q15389 20-498, limits assumed).
T2 construct: Tested by the same SPR set-up as hAng2; the construct is not described; also called human Ang1
T2 sequence (looked up): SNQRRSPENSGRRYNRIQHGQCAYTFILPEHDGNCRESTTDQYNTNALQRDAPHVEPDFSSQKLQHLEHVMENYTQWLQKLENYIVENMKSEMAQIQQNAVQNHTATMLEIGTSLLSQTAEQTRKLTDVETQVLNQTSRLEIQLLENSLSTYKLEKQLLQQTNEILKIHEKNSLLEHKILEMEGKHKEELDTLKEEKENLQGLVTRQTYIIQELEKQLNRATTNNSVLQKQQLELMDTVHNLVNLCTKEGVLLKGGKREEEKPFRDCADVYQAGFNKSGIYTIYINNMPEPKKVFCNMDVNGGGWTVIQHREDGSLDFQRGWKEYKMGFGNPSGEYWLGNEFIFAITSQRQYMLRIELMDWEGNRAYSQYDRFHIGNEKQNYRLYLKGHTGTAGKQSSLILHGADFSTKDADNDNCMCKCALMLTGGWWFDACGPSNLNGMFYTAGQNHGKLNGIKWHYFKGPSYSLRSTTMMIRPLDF
The assay is described as follows: SPR, BIAcore T100.
Take B1: the binding result is “no binding (tested: 100 nM (highest antibody concentration))”.
On to B2, for which the binding result is recorded as “no binding (tested: 100 nM (highest antibody concentration))”.
With B3, the binding result is given as “no binding (tested: 100 nM (highest antibody concentration))”.

For the next assay, the target named is T3, recombinant hAng-2 (C-His, R&D Systems) (human, UniProt O15123 19-496).
T3 construct: Bought protein; Captured on an anti-His antibody chip for SPR; also called human Ang2; not shown: C-terminal His tag
T3 sequence: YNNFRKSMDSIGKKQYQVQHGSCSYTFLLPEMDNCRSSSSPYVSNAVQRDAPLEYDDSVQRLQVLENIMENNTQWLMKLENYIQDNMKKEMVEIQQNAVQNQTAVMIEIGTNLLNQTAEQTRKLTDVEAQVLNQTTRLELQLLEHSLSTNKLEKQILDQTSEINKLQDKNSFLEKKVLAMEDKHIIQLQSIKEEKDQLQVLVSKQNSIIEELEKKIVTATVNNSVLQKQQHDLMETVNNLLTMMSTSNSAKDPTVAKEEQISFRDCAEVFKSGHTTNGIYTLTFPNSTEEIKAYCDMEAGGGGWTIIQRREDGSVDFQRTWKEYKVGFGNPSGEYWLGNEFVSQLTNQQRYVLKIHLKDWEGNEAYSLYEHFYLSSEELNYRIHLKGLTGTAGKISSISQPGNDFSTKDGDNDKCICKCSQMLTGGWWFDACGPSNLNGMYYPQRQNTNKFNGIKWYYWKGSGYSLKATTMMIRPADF
The assay is described as follows: SPR, BIAcore T100; hAng-2 C-His captured on anti-His chip, antibody flowed. The protocol:
To more exactly measure the binding affinity of the anti-Ang2 antibodies to antigen Ang2, the binding affinity of the above antibodies to the antigen was measured by an surface plasmon resonance (SPR) method using BIAcore T100 (GE Healthcare). The SPR method uses refractive index change of light which passes a sensor chip according to the state of materials coated onto the sensor chip, and if an antigen or an antibody is flowed onto a chip coated with the antigen or antibody, it causes changes in refractive index due to their binding and Kd values are thus calculated from the measured values.
First, anti-His antibody was immobilized on a CM5 sensor chip (GE healthcare) up to 8,000 RU levels using a pH 5.0 acetate solution and an amine coupling kit (GE Healthcare). 6 μg/ml of a recombinant hAng-2 (C-His, R&D Systems) protein was flowed onto the chip to be captured at 100 to 200 RU levels.
For B1, the Kd is 1.3 nM.
Same read-out and setting: under B2 stands 4 nM; under B3, 4.2 nM.

The target in the next assay is T4, human Ang2 protein (R&D systems) (human, UniProt O15123 19-496).
T4 sequence: T3 sequence
In words: cell-based or functional assay.
For B1, the “Tie2 phosphorylation inhibition (%), antibody at 50 nM, Tie2-overexpressing CHO cells with 20 nM human Ang2” value (from here on “Tie2 phosphorylation inhibition (%)”) came out at 76.9%.
Turning to B2, the “Tie2 phosphorylation inhibition (%)” value was found to be 76.7%.
In the case of B3, the “Tie2 phosphorylation inhibition (%)” value was 82%.

Source of the values: patent US20150210761A1 (SAMSUNG ELECTRONICS, published 2015).
